Assay results taken from patent US12269859B2, “Synthetic immune receptors and methods of use thereof” (Angeles Therapeutics, Inc., priority 2016, dated 2025).

Tested on: target antigen-expressing cell line
Experiment: Jurkat NFAT-GFP assay, coculture with target cell lines expressing the respective target antigen (summary Table 10A)
Format: cell-based, human
Parameters: key: The signs +/−, +, 2+ etc. after the name of the cell lines indicate the relative degree of positivity on the Jurkat-NFAT-GFP assay as measured by the % GFP positive cells; +: relative degree of positivity on the Jurkat-NFAT-GFP assay as measured by the % GFP positive cells; 2+: relative degree of positivity on the Jurkat-NFAT-GFP assay as measured by the % GFP positive cells
Method in brief: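 Readout is % GFP+ cells by FACS, graded +/− to 2+ relative to parental reporter cells. Jurkat-NFAT-GFP cells stably transduced with SIR constructs (puromycin-selected) were mixed with target-antigen-expressing cell lines at roughly 1:2 effector:target and cocultured ~4–18 h.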

Molecule	NFAT-GFP ASSAY Positive Cell lines (coculture with L363 cells)	NFAT-GFP ASSAY Positive Cell lines (coculture with U266 cells)	NFAT-GFP ASSAY Positive Cell lines (coculture with NALM6 cells)	NFAT-GFP ASSAY Positive Cell lines (coculture with RAJI cells)
022817-N08 (protein) MALPVTALLLPLALLLHAARPDVVMTQTPLSLSVTPGQPASISCRSSQSLVHNNGNTYLHWYLQKPGQSPQLLIYKVSNRFSGVPDRFSGSGSGTDFTLKISRVEAEDVGVYFCSQSTHVPPYTFGGGTKVEIKLEEQKLISEEDLGSGEDLKNVFPPEVAVFEPSKAEIAHTQKATLVCLATGFYPDHVELSWWVNGKEVHSGVCTDPQPLKEQPALNDSRYCLSSRLRVSATFWQNPRNHFRCQVQFYGLSENDEWTQDRAKPVTQIVSAEAWGRADCGITSASYHQGVLSATILYEILLGKATLYAVLVSALVLMAMVKRKDSRGRAKRSGSGATNFSLLKQAGDVEENPGPTSMDWIWRILFLVGAATGAHSFEEVQLVESGGGLVQPGGSLRLSCAASGFTFSDYYMAWVRQAPGKGLEWVAEINYDGSSTYYVDSVKGRFTISRDNAKNSLYLQMNSLRAEDTAVYYCARDRGFYFDYWGQGTTVTVSSTREQKLISEEDLGSGIQNPDPAVYQLRDSKSSDKSVCLFTDFDSQTNVSQSKDSDVYITDKCVLDMRSMDFKSNSAVAWSNKSDFACANAFNNSIIPEDTFFPSSDVPCDVKLVEKSFETDTNLNFQNLSVIGFRILLLKVAGFNLLMTLRLWSSRAKRSGSGVKQTLNFDLLKLAGDVESNPGPSRGHMTEYKPTVRLATRDDVPRAVRTLAAAFADYPATRHTVDPDRHIERVTELQELFLTRVGLDIGKVWVADDGAAVAVWTTPESVEAGAVFAEIGPRMAELSGSRLAAQQQMEGLLAPHRPKEPAWFLATVGVSPDHQGKGLGSAVVLPGVEAAERAGVPAFLETSAPRNLPFYERLGFTVTADVEVPEGPRTWCMTRKPGA	(+/−)	U266 (+/−), L363	–	–
012517-O12 (protein) MALPVTALLLPLALLLHAARPLEGKPIPNPLLGLDSTGSGEDLKNVFPPEVAVFEPSKAEIAHTQKATLVCLATGFYPDHVELSWWVNGKEVHSGVCTDPQPLKEQPALNDSRYCLSSRLRVSATFWQNPRNHFRCQVQFYGLSENDEWTQDRAKPVTQIVSAEAWGRADCGITSASYHQGVLSATILYEILLGKATLYAVLVSALVLMAMVKRKDSRGRAKRSGSGATNFSLLKQAGDVEENPGPTSMALPVTALLLPLALLLHAARPDIQMTQSSSYLSVSLGGRVTITCKASDHINNWLAWYQQKPGNAPRLLISGATSLETGVPSRFSGSGSGKDYTLSITSLQTEDVATYYCQQYWSTPWTFGGGTKLEIKGGGGSGGGGSGGGGSQVQLQQSGAELARPGASVKLSCKASGYTFTSYWMQWVKQRPGQGLEWIGAIYPGDGDTRYTQKFKGKATLTADKSSSTAYMQLSSLASEDSAVYYCARGKVYYGSNPFAYWGQGTLVTVSATREQKLISEEDGSGIQNPDPAVYQLRDSKSSDKSVCLFTDFDSQTNVSQSKDSDVYITDKCVLDMRSMDFKSNSAVAWSNKSDFACANAFNNSIIPEDTFFPSSDVPCDVKLVEKSFETDTNLNFQNLSVIGFRILLLKVAGFNLLMTLRLWSSRAKRSGSGVKQTLNFDLLKLAGDVESNPGPSRGHMTEYKPTVRLATRDDVPRAVRTLAAAFADYPATRHTVDPDRHIERVTELQELFLTRVGLDIGKVWVADDGAAVAVWTTPESVEAGAVFAEIGPRMAELSGSRLAAQQQMEGLLAPHRPKEPAWFLATVGVSPDHQGKGLGSAVVLPGVEAAERAGVPAFLETSAPRNLPFYERLGFTVTADVEVPEGPRTWCMTRKPGA	+/−	+	–	–
012517-N12 (protein) MALPVTALLLPLALLLHAARPLEGKPIPNPLLGLDSTGSGEDLKNVFPPEVAVFEPSKAEIAHTQKATLVCLATGFYPDHVELSWWVNGKEVHSGVCTDPQPLKEQPALNDSRYCLSSRLRVSATFWQNPRNHFRCQVQFYGLSENDEWTQDRAKPVTQIVSAEAWGRADCGITSASYHQGVLSATILYEILLGKATLYAVLVSALVLMAMVKRKDSRGRAKRSGSGATNFSLLKQAGDVEENPGPTSMALPVTALLLPLALLLHAARPDVVMTQSPLSLPVTPGEPASISCRSSQSLVHSNGNTYLHWYLQKPGQSPQLLIYKVSNRFSGVPDRFSGSGSGTDFTLKISRVEAEDVGVYFCSQSTHVPPFTFGGGTKVEIKGGGGSGGGGSGGGGSEVQLVESGGGLVQPGGSLRLSCAASGFTFSDYYMAWVRQAPGKGLEWVADINYDGGSTYYLDSLKSRFTISRDNAKNSLYLQMNSLRAEDTAVYYCARDRGYYFDYWGQGTLVTVSSTREQKLISEEDGSGIQNPDPAVYQLRDSKSSDKSVCLFTDFDSQTNVSQSKDSDVYITDKCVLDMRSMDFKSNSAVAWSNKSDFACANAFNNSIIPEDTFFPSSDVPCDVKLVEKSFETDTNLNFQNLSVIGFRILLLKVAGFNLLMTLRLWSSRAKRSGSGVKQTLNFDLLKLAGDVESNPGPSRGHMTEYKPTVRLATRDDVPRAVRTLAAAFADYPATRHTVDPDRHIERVTELQELFLTRVGLDIGKVWVADDGAAVAVWTTPESVEAGAVFAEIGPRMAELSGSRLAAQQQMEGLLAPHRPKEPAWFLATVGVSPDHQGKGLGSAVVLPGVEAAERAGVPAFLETSAPRNLPFYERLGFTVTADVEVPEGPRTWCMTRKPGA	+	2+	–	–
012517-D12 (protein) MALPVTALLLPLALLLHAARPLEGKPIPNPLLGLDSTGSGEDLKNVFPPEVAVFEPSKAEIAHTQKATLVCLATGFYPDHVELSWWVNGKEVHSGVCTDPQPLKEQPALNDSRYCLSSRLRVSATFWQNPRNHFRCQVQFYGLSENDEWTQDRAKPVTQIVSAEAWGRADCGITSASYHQGVLSATILYEILLGKATLYAVLVSALVLMAMVKRKDSRGRAKRSGSGATNFSLLKQAGDVEENPGPTSMALPVTALLLPLALLLHAARPDVVMTQTPLSLSVTPGQPASISCRSSQSLVHSNGLTYLHWYLQKPGQSPQLLIYKVSNRFSGVPDRFSGSGSGTDFTLKISRVEAEDVGVYFCSQSTHVPPFTFGGGTKVEIKGGGGSGGGGSGGGGSEVQLVESGGGLVQPGGSLRLSCAASGFTFSDYYMAWVRQAPGKGLEWVASINYDGESTYYVDSVKGRFTISRDNAKNSLYLQMNSLRAEDTAVYYCARDRGYYFDYWGQGTTVTVSSTREQKLISEEDGSGIQNPDPAVYQLRDSKSSDKSVCLFTDFDSQTNVSQSKDSDVYITDKCVLDMRSMDFKSNSAVAWSNKSDFACANAFNNSIIPEDTFFPSSDVPCDVKLVEKSFETDTNLNFQNLSVIGFRILLLKVAGFNLLMTLRLWSSRAKRSGSGVKQTLNFDLLKLAGDVESNPGPSRGHMTEYKPTVRLATRDDVPRAVRTLAAAFADYPATRHTVDPDRHIERVTELQELFLTRVGLDIGKVWVADDGAAVAVWTTPESVEAGAVFAEIGPRMAELSGSRLAAQQQMEGLLAPHRPKEPAWFLATVGVSPDHQGKGLGSAVVLPGVEAAERAGVPAFLETSAPRNLPFYERLGFTVTADVEVPEGPRTWCMTRKPGA	U266 (+), L363 (+)	U266 (+), L363 (+)	–	–
010417-Z03 (protein) MALPVTALLLPLALLLHAARPLEGKPIPNPLLGLDSTGSGEDLKNVFPPEVAVFEPSKAEIAHTQKATLVCLATGFYPDHVELSWWVNGKEVHSGVCTDPQPLKEQPALNDSRYCLSSRLRVSATFWQNPRNHFRCQVQFYGLSENDEWTQDRAKPVTQIVSAEAWGRADCGITSASYHQGVLSATILYEILLGKATLYAVLVSALVLMAMVKRKDSRGRAKRSGSGATNFSLLKQAGDVEENPGPTSTMALPVTALLLPLALLLHAARPDIQMTQSPSSLSASVGDRVTITCKASQDVGIAVAWYQQKPGKVPKLLIYWASTRHTGVPDRFSGSGSGTDFTLTISSLQPEDVATYYCQQYSSYPYTFGQGTKVEIKGGGGSGGGGSGGGGSEVQLVESGGGLVQPGGSLRLSCAASGFDFSRYWMSWVRQAPGKGLEWIGEINPDSSTINYAPSLKDKFIISRDNAKNSLYLQMNSLRAEDTAVYYCARPDGNYWYFDVWGQGTLVTVSSTREAAAKEIVMTQSPATLSLSPGERATLSCRASQDISKYLNWYQQKPGQAPRLLIYHTSRLHSGIPARFSGSGSGTDYTLTISSLQPEDFAVYFCQQGNTLPYTFGQGTKLEIKGGGGSGGGGSGGGGSQVQLQESGPGLVKPSETLSLTCTVSGVSLPDYGVSWIRQPPGKGLEWIGVIWGSETTYYNSSLKSRVTISKDNSKNQVSLKLSSVTAADTAVYYCAKHYYYGGSYAMDYWGQGTLVTVSSTREQKLISEEDGSGIQNPDPAVYQLRDSKSSDKSVCLFTDFDSQTNVSQSKDSDVYITDKCVLDMRSMDFKSNSAVAWSNKSDFACANAFNNSIIPEDTFFPSSDVPCDVKLVEKSFETDTNLNFQNLSVIGFRILLLKVAGFNLLMTLRLWSSRAKRSGSGVKQTLNFDLLKLAGDVESNPGPSRGHMTEYKPTVRLATRDDVPRAVRTLAAAFADYPATRHTVDPDRHIERVTELQELFLTRVGLDIGKVWVADDGAAVAVWTTPESVEAGAVFAEIGPRMAELSGSRLAAQQQMEGLLAPHRPKEPAWFLATVGVSPDHQGKGLGSAVVLPGVEAAERAGVPAFLETSAPRNLPFYERLGFTVTADVEVPEGPRTWCMTRKPGA	–	–	NALM6	RAJI
